The source of these data is patent publication US20240019424A1.

Assay [1] concerns the target biotinylated single chain human FcRn (beta-2-microglobulin-human FcRn fusion polypeptide with (GGGGS)4-peptidic linker and C-terminal His(10)-Avi-tag) (human) (UniProt P61769). The assay can be described thus: SPR, C1 chip, scFcRn about 80 RU, Interaction Map spot; 150 mM NaCl; intermolecular binding 1+1′. Background: In SPR one partner is held on a chip, and binding of the other changes the refractive index at the surface.

The target is the same in assay [2]. The assay is described as follows: SPR, C1 chip, scFcRn about 80 RU, Interaction Map spot; 400 mM NaCl; intramolecular binding 1+2+1+2.
Assay [3] has the same target. The assay is described as follows: SPR, C1 chip, scFcRn about 80 RU, Interaction Map spot; 150 mM NaCl; intramolecular binding 1+2.
The target is the same in assay [4]. The assay can be described thus: SPR, C1 chip, scFcRn about 80 RU, Interaction Map spot; 400 mM NaCl; intramolecular binding 1+2.
For assay [5] the target is unchanged. The assay can be described thus: SPR, C1 chip, scFcRn about 80 RU, Interaction Map spot; 400 mM NaCl; intermolecular binding 1+2′.
For assay [6] the target is unchanged. The assay can be described thus: SPR, C1 chip, scFcRn about 80 RU, Interaction Map spot; 400 mM NaCl; intermolecular binding 1+1′.
Assay [7] shares this target. The assay is described as follows: SPR, C1 chip, scFcRn about 80 RU, Interaction Map spot; 400 mM NaCl and 20% (w/w) ethylene glycol; intermolecular binding 1+1′.
Assay [8] shares this target. The assay can be described thus: SPR, C1 chip, scFcRn about 80 RU, Interaction Map spot; 150 mM NaCl; intermolecular binding 1+2′.
Assay [9] has the same target. The assay can be described thus: SPR, C1 chip, scFcRn about 80 RU, Interaction Map spot; 150 mM NaCl; intramolecular binding 1+2+1+2.
The target is the same in assay [10]. The assay can be described thus: SPR, C1 chip, scFcRn about 80 RU, Interaction Map spot; 400 mM NaCl and 20% (w/w) ethylene glycol; intramolecular binding 1+2.
The target is the same in assay [11]. The assay is described as follows: SPR, C1 chip, scFcRn amine-coupled about 80 RU, antibody as analyte, Interaction Map spot; 150 mM NaCl; intermolecular (FIG. 16 spot 2).
Assay [12] has the same target. The assay is described as follows: SPR, C1 chip, scFcRn amine-coupled about 80 RU, antibody as analyte, Interaction Map spot; 150 mM NaCl; intramolecular (FIG. 16 spot 1).
The target is the same in assay [13]. The assay can be described thus: SPR, C1 chip, scFcRn about 80 RU, Interaction Map spot; 400 mM NaCl; intermolecular.
Assay [14] shares this target. The assay is described as follows: SPR, C1 chip, scFcRn about 80 RU, Interaction Map spot; 400 mM NaCl; intramolecular.
For assay [15] the target is unchanged. The assay is described as follows: SPR, scFcRn on C1 chip, Interaction Map spot; 150 mM NaCl; intramolecular (FIG. 16 spot 1).
Assay [16] has the same target. The assay can be described thus: SPR, scFcRn on C1 chip, Interaction Map spot; 400 mM NaCl; intramolecular.
The target is the same in assay [17]. The assay can be described thus: SPR, scFcRn on C1 chip, Interaction Map spot; 400 mM NaCl; intermolecular.
The target is the same in assay [18]. The assay can be described thus: SPR, scFcRn on C1 chip, Interaction Map spot; 150 mM NaCl; intermolecular (FIG. 16 spot 2).
For assay [19] the target is unchanged. The assay can be described thus: SPR, scFcRn on C1 chip, Interaction Map spot; 400 mM NaCl; intermolecular, second of two spots.
Assay [20] shares this target. The assay is described as follows: SPR, scFcRn on C1 chip, Interaction Map spot; 400 mM NaCl; intermolecular, first of two spots.

biotinylated single chain human FcRn (beta-2-microglobulin-human FcRn fusion polypeptide with (GGGGS)4-peptidic linker and C-terminal His(10)-Avi-tag) (human), sequence (P61769 other isoform, or with tags, fused parts or gaps limits assumed): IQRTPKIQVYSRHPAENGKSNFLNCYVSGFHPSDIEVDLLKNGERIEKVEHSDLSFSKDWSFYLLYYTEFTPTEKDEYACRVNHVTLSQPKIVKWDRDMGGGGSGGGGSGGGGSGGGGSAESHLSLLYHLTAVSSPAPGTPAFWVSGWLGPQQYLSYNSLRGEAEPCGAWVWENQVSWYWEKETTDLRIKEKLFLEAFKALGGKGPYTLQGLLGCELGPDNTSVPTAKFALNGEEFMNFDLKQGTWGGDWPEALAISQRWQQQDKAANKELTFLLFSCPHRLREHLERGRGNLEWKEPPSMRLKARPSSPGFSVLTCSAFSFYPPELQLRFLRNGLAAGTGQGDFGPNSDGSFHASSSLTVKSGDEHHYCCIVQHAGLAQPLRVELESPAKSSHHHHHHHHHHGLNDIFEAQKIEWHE

Take “anti-digoxygenin Fabs connected to a wild-type IgG1 Fc-region (from UniProt P01857 104-330) (antibody)”: the Kd – broadly, a measure of binding affinity in units of concentration – was determined as 126 nM in assay [1]; 0.33 nM in [2]; 382 nM in assay [3]; 840 nM in assay [4]; 4.8 nM in assay [5]; 100 nM in assay [6]. Moreover, the dissociation constant Kd was 75 nM in [7], 5.7 nM in assay [8], 0.16 nM in [9] and 1140 nM in [10].

For the substance “anti-digoxygenin Fabs connected to an IgG1 Fc-region with the mutations M252Y/S254T/T256E in both Fc-region polypeptides (from UniProt P01857 104-330) (antibody)”, the equilibrium dissociation constant (Kd) is 1.6 nM in assay [2], 92 nM in assay [3] and 92 nM in assay [4].

For the substance “anti-digoxygenin Fabs connected to an IgG1 Fc-region with the mutations T307H/N434H in both Fc-region polypeptides (from UniProt P01857 104-330) (antibody)”, the Kd in assay [1] worked out at 71 nM; in [2], 0.13 nM; in assay [3], 177 nM; in assay [4] it was 156 nM; in [6], 25 nM; in [8], 3 nM. The dissociation constant Kd in assay [9] was found to be 0.12 nM.

On to “anti-digoxygenin-Fabs added to the Fc-region with a single FcRn binding site (mutations I253A/H310A/H435A in one Fc-region polypeptide and wild-type in the respective other Fc-region polypeptide) (from UniProt P01857 104-330; P01857 104-330) (antibody)”, for which the dissociation constant (Kd) in [11] turned out to be 20.5 nM; in assay [12] it was 1250 nM; in assay [13], 60 nM; in assay [14], 1060 nM.

Regarding “asymmetric antibody with the mutations I253A/H310A/H435A in one Fc-region polypeptide and the mutations M252Y/S254T/T256E in the respective other Fc-region polypeptide (from UniProt P01857 104-330; P01857 104-330)”, the dissociation constant Kd in assay [15] worked out at 184 nM; in [16] it was 166 nM; in assay [17], 6.2 nM; in assay [18] it was 4.7 nM.

For the substance “asymmetric antibody with the mutations I253A/H310A/H435A in one Fc-region polypeptide and the mutations T307H/N434H in the respective other Fc-region polypeptide (from UniProt P01857 104-330; P01857 104-330)”, the Kd in [19] stood at 39 nM; in assay [15], 391 nM; in assay [16], 325 nM; in assay [20] it was 4.3 nM; in assay [18], 10.4 nM.
